Data set [1] has as its target hOGG1 (human oxoguanine glycosylase 1), wildtype (human) (UniProt O15527). The data set is described as follows: FP; reducing. Conditions: domain or fragment.
The target is the same in data set [2]. The data set is described as follows: FP; oxidising. To be noted: domain or fragment.
The target is the same in data set [3]. The data set is described as follows: fluorescence polarisation; reducing conditions (5 mM DTT); 5 nM Ni-NTA AF488 labelled his6-hOGG1, unlabelled protein titrated (Myc 1.22 nM-2 uM, LSD1 1.38 nM-60 uM, hOGG1 0.24 nM-8 uM); 20 mM Tris-HCl pH 7.6, 200 mM NaCl; 25 C; single Hill fit. For orientation: Polarisation of emitted light reports the rotation of a fluorescent probe.

Data set [4] shares this target. The data set is described as follows: fluorescence polarisation; oxidising conditions (5 uM H2O2); 5 nM Ni-NTA AF488 labelled his6-hOGG1, unlabelled protein titrated (Myc 1.22 nM-2 uM, LSD1 1.38 nM-60 uM, hOGG1 0.24 nM-8 uM); 20 mM Tris-HCl pH 7.6, 200 mM NaCl; 25 C; single Hill fit.
The next data set concerns the target hOGG1 wild type (human) (UniProt O15527). The data set is described as follows: AFM. Conditions: 150 nM hOGG1, 8-oxoguanine at ~50% (49.8%) of length, FP at 25°C with 5 nM labelled DNA, EMSA room temp 30 min, 15% native PAGE 0.5x TBE 4°C, interaction buffer 20 mM Tris-HCl pH 7.6, 200 mM NaCl (Fig. S12) …. (A gel shift assay detects complexes by their altered migration in electrophoresis.)

hOGG1 (human oxoguanine glycosylase 1), wildtype (human), sequence (O15527 whole entry, the tested form may be a part): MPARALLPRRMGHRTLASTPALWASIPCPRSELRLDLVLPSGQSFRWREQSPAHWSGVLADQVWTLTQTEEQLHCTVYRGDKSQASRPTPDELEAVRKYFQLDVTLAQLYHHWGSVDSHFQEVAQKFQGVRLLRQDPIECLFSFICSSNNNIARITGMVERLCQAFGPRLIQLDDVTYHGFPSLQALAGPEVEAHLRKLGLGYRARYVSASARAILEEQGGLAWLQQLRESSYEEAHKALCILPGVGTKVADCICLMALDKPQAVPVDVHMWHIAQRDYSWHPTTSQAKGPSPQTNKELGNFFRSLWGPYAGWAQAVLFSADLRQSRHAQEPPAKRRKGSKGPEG
hOGG1 wild type (human), sequence (O15527 whole entry): as the sequence (O15527 whole entry, the tested form may be a part) above
isolated N-terminal domain of Myc, sequence (P01106 16-158): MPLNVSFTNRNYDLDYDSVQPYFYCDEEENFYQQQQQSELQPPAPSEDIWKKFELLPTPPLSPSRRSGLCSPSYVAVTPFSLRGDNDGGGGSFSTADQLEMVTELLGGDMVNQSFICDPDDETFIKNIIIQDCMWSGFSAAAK
GST tagged full length c-Myc, sequence (P01106 whole entry): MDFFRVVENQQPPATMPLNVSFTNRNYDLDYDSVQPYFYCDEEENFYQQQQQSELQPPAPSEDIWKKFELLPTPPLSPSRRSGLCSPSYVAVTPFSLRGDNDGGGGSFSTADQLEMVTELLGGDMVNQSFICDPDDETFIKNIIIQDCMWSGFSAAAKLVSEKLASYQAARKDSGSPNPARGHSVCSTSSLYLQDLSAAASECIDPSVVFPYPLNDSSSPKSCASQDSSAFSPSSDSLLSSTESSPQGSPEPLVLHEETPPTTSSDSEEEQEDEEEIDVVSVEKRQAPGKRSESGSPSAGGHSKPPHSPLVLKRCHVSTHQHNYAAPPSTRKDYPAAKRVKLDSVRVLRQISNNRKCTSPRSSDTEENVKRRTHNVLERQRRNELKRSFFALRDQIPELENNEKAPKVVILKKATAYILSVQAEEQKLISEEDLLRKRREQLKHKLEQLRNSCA

By Kd is commonly meant the free concentration of one partner at which half of the binding sites on the other are occupied at equilibrium, for simple one-to-one binding. Turning to isolated N-terminal domain of Myc, the dissociation constant (Kd) stood at 1070 nM in data set [1] and 705 nM in data set [2].

Consider “GST tagged full length c-Myc (from UniProt P01106 1-454) (natural protein; Ni-NTA AlexaFluor 488 dye on the his6 tag (labelled copy in fluorescence polarisation); other documents disagree on this pair)”, for which the Kd in data set [3] was determined as 1060 nM; in data set [4], 662 nM.

oxoG 505 bp AFM substrate: the binding signal (counts/DNA at oxoG) with hOGG1 wild type (human) (oxidising, specificity 368 ± 74) is 0.1; with hOGG1 wild type (human) (reducing, specificity 543 ± 37), 0.18.

Values taken from article PMC9561264.
